The source of these data is PMC12552534.

What is called stoichiometry N is the number of molecules, sites or subunits per partner or assembly.

Experiment [1] deals with N terminally histidine-tagged N-terminal domain of STAT3 (STAT3ND) (human) (UniProt P40763). Put plainly: native MS; Y3 (50 μM) complexed with STAT3ND (50 μM), buffer-exchanged to 450 mM ammonium acetate pH 8.0, nano-ESI, native condition.
Experiment [2] concerns the target N terminally histidine-tagged Y3 (C-terminal region of Sendai virus C protein) (Sendai virus). The description is as above.
The target of experiment [3] is N terminally histidine-tagged N-terminal domain of STAT3 (STAT3ND) (human) (UniProt P40763). The experiment is described as follows: SEC; Y3 and STAT3ND alone or mixed equimolar (100 μM in text and methods, 50 μM in the legend), preincubated 10 min on ice; Superdex 75 Increase 10/300 GL, 20 mM Tris-HCl pH 8.0, 100 mM NaCl, 4 °C, 0.5 ml/min; fractions on SDS-PAGE.
Experiment [4] has as its target C terminally LgBiT-fused C protein (Sendai virus). The experiment is described as follows: split reporter (BiFC, NanoBiT); NanoBiT; 293T cells co-transfected with LgBiT-fused C and SmBiT-fused STAT1, STAT3 or SV40 large T antigen (negative control), 24 h; luciferase activity measured in NP-40 lysates, normalised to GAPDH; control set to 1.

Chain of C terminally LgBiT-fused C protein (Sendai virus) (P04862 1-204): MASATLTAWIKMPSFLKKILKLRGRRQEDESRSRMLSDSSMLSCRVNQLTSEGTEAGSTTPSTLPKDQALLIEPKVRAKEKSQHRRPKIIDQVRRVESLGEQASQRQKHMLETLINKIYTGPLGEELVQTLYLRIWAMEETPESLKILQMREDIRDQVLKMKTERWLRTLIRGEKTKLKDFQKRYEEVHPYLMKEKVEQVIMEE

The substance “N terminally histidine-tagged Y3 (C-terminal region of Sendai virus C protein) (domain or fragment)” had a stoichiometry N (Y3 per STAT3ND (1:2)) in experiment [1] of 0.5. In experiment [2], the stoichiometry N stood at 2.

In the case of “N terminally histidine-tagged N-terminal domain of STAT3 (STAT3ND) (from UniProt P40763 3-138) (domain or fragment)”, the stoichiometry N in experiment [3] came out at 2.

As to “N terminally SmBiT-fused STAT3 (from UniProt P40763 1-770) (natural protein)”, in experiment [4], the luciferase activity, fold lower than with SmBiT-fused STAT1 amounted to 4.8 fold and the luciferase activity, fold over the SmBiT-fused SV40 large T antigen negative control was 1.3 fold.
